Key:
human Aβ3pE-40 peptide [1] = target: T1, human Aβ3pE-40 peptide (human, pyroglutamate at the third residue of Aβ (N-terminal residue of this peptide)); assay: SPR (Biacore T200), single cycle kinetics, antibody captured by anti-mouse antibody, peptide 3.125-50 nM, 1:1 fit, mean of n = 6
T1 construct: Synthetic peptide (AnaSpec)
Method: Immobilization of the anti-mouse antibody was performed via amine coupling on a CM5 sensor chip following the manufacturer's protocol. […] The surface was regenerated with 10 mM glycine HCl at pH 1.7 for at least 180 sec and additional 60 sec. Human Aβ (1-40) peptide was used as a negative control.
Affinity measurements were performed using an optical biosensor T200 (Biacore®). Kinetic analysis was performed according to 1:1 binding fitting model with Biacore T200 Evaluation Software (version 2.0).

rodent Aβ3pE-40 = target: T2, rodent Aβ3pE-40 (rodent, UniProt P12023 674-711, pyroglutamate at the third residue of Aβ (N-terminal residue of this peptide)); assay: sandwich ELISA, Aβ/pE3/1 coated, detection with JRF/cAβ40/28-HRPO
T2 construct: domain: Aβ3pE-40; Synthetic peptide
T2 peptide (looked up): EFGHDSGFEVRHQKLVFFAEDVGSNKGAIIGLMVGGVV
Method: (§1) Concentrations up to 10,000 […] were tested.
(§2) Standards were dissolved in dimethylsulphoxide (DMSO) (Sigma) at 0.1 mg/mL and stored at −80° C. For use in ELISA, peptides were further diluted in 0.1% casein in PBS down to 1 μg/mL. […] Standards were incubated overnight at 4° C. together with HRPO-labeled secondary antibody (JRF/cAβ40/28-HRPO or JRF/cAβ42/26-HRPO). After overnight incubation, plates were washed and the assay was developed with TMB peroxide EIA substrate kit (Biorad) according to the manufacturer's recommendations.

human Aβ3-40 peptide [2] = target: T3, human Aβ3-40 peptide (human); assay: sandwich ELISA, antibody coated, peptide standard, detection with JRF/cAβ40/28-HRPO
T3 construct: Synthetic peptide (AnaSpec), N-truncated, no pyroglutamate
Method: (§3) For the selected Aβ3pE monoclonal antibodies, the sensitivity for detection of Aβ3-40 (SEQ ID NO:24) (AnaSpec, Fremont, USA) and Aβ3pE-40 (SEQ ID NO:22) (AnaSpec, Fremont, USA) was evaluated in a sandwich assay using synthetic peptides as standards.
(§4) Standards of Aβ3-40 (SEQ ID NO:24) and Aβ3pE-40 (SEQ ID NO:22) peptides were dissolved in dimethylsulphoxide (DMSO) (Sigma) at 0.1 mg/mL and stored at −80° C. For use in ELISA, peptides were further diluted in 0.1% casein in PBS down to 1 μg/mL. […] Standards were incubated overnight at 4° C. together with HRPO-labeled secondary antibody. After overnight incubation, the plates were washed and the assay was developed with Quantablu substrate (Pierce, Rockford, Ill.) according to the manufacturer's recommendations.

human Aβ3pE-40 peptide [3] = target: T1, human Aβ3pE-40 peptide; assay: as above
Method: as §3, §4

human Aβ1-42 peptide = target: T4, human Aβ1-42 peptide (human); assay: sandwich ELISA, Aβ/pE3/1 coated, detection with JRF/cAβ42/26-HRPO
T4 construct: Synthetic peptide; also called full-length human (Aβ1-42)
T4 sequence (peptide, as listed by the source): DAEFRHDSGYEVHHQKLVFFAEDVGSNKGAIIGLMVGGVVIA
Method: as §1, §2

human Aβ3-42 peptide = target: T5, human Aβ3-42 peptide (human); assay: as above
T5 construct: Synthetic peptide; also called N-truncated (Aβ3-42)
T5 sequence (peptide, as listed by the source): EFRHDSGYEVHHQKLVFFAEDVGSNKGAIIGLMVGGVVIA
Method: as §1, §2

human Aβ1-40 peptide = target: T6, human Aβ1-40 peptide (human); assay: sandwich ELISA: Aβ/pE3/1 coated as capture, peptide titrated, detection with JRF/cAβ40/28-HRPO, net OD 450 nm
T6 construct: Synthetic peptide
Method: as §1, §2

human Aβ3-40 peptide [4] = target: T3, human Aβ3-40 peptide; assay: as above
Method: as §1, §2

human Aβ3pE-40 peptide [5] = target: T1, human Aβ3pE-40 peptide; assay: as above
Method: as §1, §2

Kd (human Aβ3pE-40 peptide [1]): 0.853 nM
binding result (rodent Aβ3pE-40): no binding (tested: up to 10 ng/mL)
EC50 (human Aβ3-40 peptide [2]): 0.355 nM
EC50 (human Aβ3pE-40 peptide [3]): 0.026 nM
binding result (human Aβ1-42 peptide): no binding (tested: up to 10 ng/mL)
binding result (human Aβ3-42 peptide): binds
binding result (human Aβ1-40 peptide): no binding (tested: 10000 pg/ml (LOG 4))
EC50 (read off the curve) (human Aβ3-40 peptide [4]): ~1 ng/mL
EC50 (read off the curve) (human Aβ3pE-40 peptide [5]): ~0.1 ng/mL
B1: Aβ/pE3/1 (antibody, mouse IgG2a, kappa, V domains shown)
VH: QVQLQQPGAELVRPGASVKLSCKTSGYTFTRYWINWVKQRPGQGLEWIGNIRPSDSYTNYNQKFKDKATLTVDKSSSTAYMQLNRPTSEDSAVYYCTREGAYSDYETYWGQGTLVTVSA
VL: not shown
notes: Murine monoclonal; also called Clone 1; antibody from clone 1
